“Also recorded” adds a separate entry of the source.
Key:
[1] = test system: pCMV.Luciferase reporter gene in HEK293 cells; test: Ablation of luciferase reporter by FokI ablators cotransfected with pCMV.Luciferase; type: cell-based, human; conditions: for expression of Luc reporter gene with increasing concentrations of ablator expression plasmid: 50 ng pCMV.Luciferase cotransfected with 6.25, 12.5, 25, 50 and 100 ng expression plasmid
Protocol: Open reading frames encoding for various endonucleases were codon optimized and de novo synthesized by GeneArt. Ablator expression and target plasmids were produced using standard molecular biological cloning techniques. Transfections were performed in HEK293 cells using Lipofectamine™ 2000 transfection reagent (Life Technologies). All transfections were performed using optimal transfection conditions as defined in transfection reagent protocol. Briefly, 200-250 ng plasmid DNA (excluding transfection control plasmid) was complexed with lipofectamine and added to cells in 96 well plates. DNA quantities were consistent across all conditions by supplementation with an unrelated plasmid containing the same promoter as test plasmids. Transfection complexes were incubated with cells for 4-6 hours as transfection reagent protocol before the addition of FBS supplemented media. Transfected cells were incubated at 37° C. for 24-72 hours. Following incubation, cells were assayed for reporter gene expression using Promega Dual Luciferase detection kit according to the manufacturer's instructions on a BioTek Clarity platereader and renilla luciferase was used to control for transfection efficiency. All samples were performed in quadruplicate and standard errors of the mean were calculated.

[2] = biological target: ZFHD-FKBP fusion with 3 copies of FKBP (3xFKBP) (UniProt P62942); test: cell-based or functional assay
[3] = test system: GFP-Luciferase driven by a promoter induced by the dimerized TF; test: In vivo model for a dimerizer-inducible system (Xenogen imaging of luciferase after rapamycin); set-up: species or system mouse; conditions: rapamycin 2 mg/kg IP
Source text: Four groups of three mice received IV injection of AAV vectors encoding bicistronic reporter genes (GFP-Luciferase) at doses of 3×10^10, 1×10^11 and 3×10^11 particles of virus, respectively: Group 1 (G 1, G2, and G3) received AAV vectors expressing GFP Luciferase under the control of ubiquitous constitutive CMV promoter (see FIG. 16A for a diagram of the DNA construct). Group 2 (G4, G5, and G6) received co-injection of the following 2 AAV vectors: (1) AAV vector expressing a dimerizable transcription factor domain unit (FRB fused with p65 activation domain and DNA binding domain ZFHD fused with 3 copies of FKBP) driven by the CMV promoter (the DNA construct shown in FIG. 9B; and (2) AAV vector expressing GFP-Luciferase driven by a promoter induced by the dimerized TF (see FIG. 19C for a diagram of the DNA constructs). Group 3 (G7, G8, and G9) received AAV vector expressing GFP-Luciferase under the control of a liver constitutive promoter, TBG (see FIG. 16C for a diagram of the DNA construct). Group 4 (G10, G11, G12) received co-injection of the following 2 AAV vectors: (1) AAV vector expressing a dimerizable transcription factor domain unit (FRB fused with p65 activation domain and DNA binding domain ZFHD fused with 3 copies of FKBP) driven by the TBG promoter; and (2) AAV vector expressing GFP-Luciferase driven by a promoter induced by the dimerized TF (see FIG. 16D for a diagram of the DNA constructs).
About 2 weeks post virus administration, the mice were given IP injection of the dimerizer, rapamycin, at the dose of 2 mg/kg. Starting the next day the luciferase expression was monitored by Xenogen imaging analysis. Approximately 24 hours post rapamycin injection, the mice were IP injected with luciferin, the substrate for luciferase, then anesthetized for imaging.

UniProt P62942, sequence (P62942 other isoform, or with tags, fused parts or gaps): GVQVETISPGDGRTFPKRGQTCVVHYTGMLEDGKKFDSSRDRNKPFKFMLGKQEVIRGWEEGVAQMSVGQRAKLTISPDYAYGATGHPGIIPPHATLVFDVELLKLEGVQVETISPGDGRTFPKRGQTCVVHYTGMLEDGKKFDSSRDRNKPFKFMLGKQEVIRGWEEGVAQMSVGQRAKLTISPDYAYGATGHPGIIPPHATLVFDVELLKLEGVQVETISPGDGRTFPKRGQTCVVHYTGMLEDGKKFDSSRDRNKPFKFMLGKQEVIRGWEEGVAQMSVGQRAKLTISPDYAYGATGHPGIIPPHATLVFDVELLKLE

ZFHD-FokI: FokI catalytic domain fused to a zinc finger homeodomain DNA binding domain (SEQ ID NO: 21), from expression plasmid
expression of Luc reporter gene with increasing concentrations of ablator expression plasmid [1]: dose dependent ablation; also recorded: effectively ablated expression of luciferase reporter in a dose dependent manner

FRB-TA fusion (FRB fragment of FRAP/mTOR, amino acids 2021-2113 with Thr2098Leu, fused to a 190 amino acid portion of human NF-KB p65)
luciferase expression in mice (Xenogen imaging) after rapamycin 2 mg/kg IP against pre-induction; Group 2, transcription factor domains driven by the CMV promoter [2]: 2 logs | luciferase expression in mice (Xenogen imaging) after rapamycin 2 mg/kg IP against pre-induction; Group 4, transcription factor domains driven by the TBG promoter [2]: > 100 fold

CO[C@H]1C[C@@H]2CC[C@@H](C)[C@@](O)(O2)C(=O)C(=O)N2CCCC[C@H]2C(=O)O[C@H]([C@H](C)C[C@@H]2CC[C@@H](O)[C@H](OC)C2)CC(=O)[C@H](C)/C=C(\C)[C@@H](O)[C@@H](OC)C(=O)[C@H](C)C[C@H](C)/C=C/C=C/C=C/1C [rapamycin]
level of luciferase expression compared to level of pre-induction ([3]; Group 2 mice (TF unit driven by CMV promoter + inducible GFP-Luciferase vector), 3×10^11 particles, about 24 h post rapamycin): more than 2 logs | luciferase expression induced compared to pre-inducement ([3]; Group 4 mice (TF unit driven by TBG promoter + inducible GFP-Luciferase vector), 3×10^11 particles, about 24 h post rapamycin): more than 100 fold | peak level of luciferase expression over baseline ([3]; dimerizer-inducible system): more than 2 logs

B1: wild-type FokI: full-length FokI enzyme (SEQ ID NO: 12) expressed from cotransfected plasmid pCMV.FokI (protein)
chain: MFLSMVSKIRTFGWVQNPGKFENLKRVVQVFDRNSKVHNEVKNIKIPTLVKESKIQKELVAIMNQHDLIYTYKELVGTGTSIRSEAPCDAIIQATIADQGNKKGYIDNWSSDGFLRWAHALGFIEYINKSDSFVITDVGLAYSKSADGSAIEKEILIEAISSYPPAIRILTLLEDGQHLTKFDLGKNLGFSGESGFTSLPEGILLDTLANAMPKDKGEIRNNWEGSSDKYARMIGGWLDKLGLVKQGKKEFIIPTLGKPDNKEFISHAFKITGEGLKVLRRAKGSTKFTRVPKRVYWEMLATNLTDKEYVRTRRALILEILIKAGSLKIEQIQDNLKKLGFDEVIETIENDIKGLINTGIFIEIKGRFYQLKDHILQFVIPNRGVGTKQLVKSELEEKKSELRHKLKYVPHEYIELIEIARNPTQDRILEMKVMEFFMKVYGYRGEHLGGSRKPDGAIYTVGSPIDYGVIVDTKAYSGGYNLPIGQADEMQRYVEENQTRNKHINPNEWWKVYPSSVTEFKFLFVSGHFKGNYKAQLTRLNHITNCNGAVLSVEELLIGGEMIKAGTLTLEEVRRKFNNGEINF
expression of the luciferase reporter gene ([1]; 50 ng pCMV.Luciferase, 200 ng pCMV.FokI or transfected FokI protein (FIG. 25A)): effective ablated expression

B2: untethered FokI: FokI catalytic domain alone, 198 amino acids (SEQ ID NO: 14), from expression plasmid (protein)
chain: MKQLVKSELEEKKSELRHKLKYVPHEYIELIEIARNPTQDRILEMKVMEFFMKVYGYRGEHLGGSRKPDGAIYTVGSPIDYGVIVDTKAYSGGYNLPIGQADEMQRYVEENQTRNKHINPNEWWKVYPSSVTEFKFLFVSGHFKGNYKAQLTRLNHITNCNGAVLSVEELLIGGEMIKAGTLTLEEVRRKFNNGEINF
expression of Luc reporter gene with increasing concentrations of ablator expression plasmid [1]: no effect

B3: HTH-FokI: HTH from Gin, linker and FokI catalytic domain (SEQ ID NO: 6), from expression plasmid (protein)
chain: MGRPPRLTKAEWEQAGRLLAQGIPRKQVALIYDVALSTLYKKHPAKRAHIENDDRINGTKQLVKSELEEKKSELRHKLKYVPHEYIELIEIARNPTQDRILEMKVMEFFMKVYGYRGEHLGGSRKPDGAIYTVGSPIDYGVIVDTKAYSGGYNLPIGQADEMQRYVEENQTRNKHINPNEWWKVYPSSVTEFKFLFVSGHFKGNYKAQLTRLNHITNCNGAVLSVEELLIGGEMIKAGTLTLEEVRRKFNNGEINF
expression of Luc reporter gene with increasing concentrations of ablator expression plasmid [1]: effectively ablated expression of luciferase reporter in a dose dependent manner

B4: NLS-HTH-FokI: HTH-FokI with heterologous NLS added at the N-terminus of the coding sequence (protein)
chain: MPKKKRKVGRPPRLTKAEWEQAGRLLAQGIPRKQVALIYDVALSTLYKKHPAKRAHIENDDRINGTKQLVKSELEEKKSELRHKLKYVPHEYIELIEIARNPTQDRILEMKVMEFFMKVYGYRGEHLGGSRKPDGAIYTVGSPIDYGVIVDTKAYSGGYNLPIGQADEMQRYVEENQTRNKHINPNEWWKVYPSSVTEFKFLFVSGHFKGNYKAQLTRLNHITNCNGAVLSVEELLIGGEMIKAGTLTLEEVRRKFNNGEINF
modifications: SV40 NLS-Gin HTH-linker-FokI, coding sequence only; modified enzyme from SV40, Gin and FokI
activity (ablation of luciferase reporter) after adding heterologous NLS at the N-terminus ([1]; compared with HTH-FokI without NLS, separate experiment (FIG. 27B)): further improved
